Article PMC7615185, “Structural basis for ion selectivity in potassium-selective channelrhodopsins” (Cell, 2023)

Experiments:
HcKCR2 = target: T1, HcKCR2 (Hyphochytrium catenoides, UniProt Z9CM73ZIR3); assay: cryo-EM structure; format: binding; conditions: dark state, nanodisc, pH 7.5; covalent Schiff base to K233; 6-s-cis conformer
T1 construct: M1-D265; MSP1E3D1/SoyPC nanodisc; residues 2-260 modelled (initiator Met lost); homotrimer
T1 sequence (Z9CM73ZIR3 1-265): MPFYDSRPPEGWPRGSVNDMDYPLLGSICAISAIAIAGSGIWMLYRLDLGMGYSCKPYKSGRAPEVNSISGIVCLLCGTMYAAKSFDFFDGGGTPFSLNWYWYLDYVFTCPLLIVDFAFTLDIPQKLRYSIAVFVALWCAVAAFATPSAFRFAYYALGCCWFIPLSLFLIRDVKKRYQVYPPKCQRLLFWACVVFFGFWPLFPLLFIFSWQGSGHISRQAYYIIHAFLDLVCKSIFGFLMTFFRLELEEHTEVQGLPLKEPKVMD

[1] = target: HcKCR1 WT (K+-selective channelrhodopsin 1 from Hyphochytrium catenoides) (Hyphochytrium catenoides); assay: cryo-EM structure; dark state; protein in MSP1E3D1/SoyPC nanodiscs, 20 mM HEPES-NaOH pH 7.5, 100 mM NaCl; C3 symmetry
[2] = target: HcKCR2 WT (K+-selective channelrhodopsin 2 from Hyphochytrium catenoides) (Hyphochytrium catenoides); assay: as above

## CC1=C(/C=C/C(C)=C/C=C/C(C)=C/C=O)C(C)(C)CCC1 [all-trans-retinal]
HcKCR2
  cryo-EM structure: HcKCR2 thus represents the initial naturally occurring microbial rhodopsin with experimentally demonstrated 6-s-cis-retinal configuration

## HcKCR1 WT (K+-selective channelrhodopsin 1 from Hyphochytrium catenoides) (domain or fragment)
[1]
  stoichiometry N: 3

## HcKCR2 WT (K+-selective channelrhodopsin 2 from Hyphochytrium catenoides) (domain or fragment)
[2]
  stoichiometry N: 3
